These results are taken from patent US7803572B2, “Protease detection assay” (Atlas Genetics, Ltd., priority 2003, dated 2010).

The target in test [1] is T1, type II bovine pancreas α-chymotrypsin (Bos taurus, UniProt P00766).
T1 construct: purchased Sigma; host or cells: bovine pancreas
Briefly: Digestion of Fc-BSA with α-chymotrypsin, differential pulse voltammetry. Type of test: biochemical. As for the experimental part: (§1) Protease assays were performed as follows unless stated otherwise. […] Samples were incubated at 37° C. for 1 hour.
A digestion of Fc-BSA with α-chymotrypsin was carried out as described above. […] The positive reaction has a peak position of 438 mV and a peak height of 4.48×10^−7 A; the no α-chymotrypsin control reaction has a peak position of 432 mV and a peak height of 2.55×10^−8 A.

Test [2] relates to carboxypeptidase. Briefly: Digestion of Fc-BSA with carboxypeptidase, differential pulse voltammetry. Format: biochemical. As to the method:
as §1
A digestion of Fc-BSA with carboxypeptidase was carried out as described above. […] The positive reaction has a peak position of 435 mV and a peak height of 1.31×10^−7 A; the no elastase control reaction has a peak position of 427 mV and a peak height of 6.86×10^−8 A.

Test [3] concerns the target T2, trypsin (Sus scrofa, UniProt P00761).
T2 construct: purchased Sigma; host or cells: porcine pancreas
Description: Amperometric analysis of trypsin digestion. Type of test: biochemical, porcine. Particulars: amperometric time course trace. As for the experimental part: Four digestion reactions were carried out with real-time amperometric analysis. […] Tryspin was resuspended in HCl (1 mM, pH 3.0), papain and carboxypeptidase were resuspended in NaCl (100 mM). […] The amperometry conditions were as set out in Tables 2 and 3.
In FIG. 17, there is shown the amperometric time course trace for the trypsin digestion of Fc-BSA. […] As the movement of the species present in the solution reaches a steady state, the current response appears to decay.
In FIG. 18, there is shown the amperometric time course trace for the papain digestion of FcU-BSA. […] As the movement of the species present in the solution reaches a steady state, the current response appears to decay. […] The amperometric time course trace for the trypsin digestion of FcU-BSA is not illustrated in the drawings but was analogous.

[4] abbreviates: no α-chymotrypsin control reaction.
Where [5] appears, read: positive reaction, 37° C. for 1 hour.

T2 sequence (P00761 9-231): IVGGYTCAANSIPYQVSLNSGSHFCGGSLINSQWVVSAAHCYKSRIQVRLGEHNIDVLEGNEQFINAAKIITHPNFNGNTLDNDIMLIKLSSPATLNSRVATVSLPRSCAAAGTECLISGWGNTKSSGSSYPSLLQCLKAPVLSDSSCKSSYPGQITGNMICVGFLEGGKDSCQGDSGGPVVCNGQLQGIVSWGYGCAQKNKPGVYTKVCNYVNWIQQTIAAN

Take “Fc-BSA: Bovine serum albumin labelled with ferrocene methanoyl groups via N-hydroxysuccinimide ester; estimated 10 to 20 ferrocenes per BSA”: the peak height in test [1] (setting [4]) is reported as 2.55×10^−8 A; in test [1] (setting [5]), 4.48×10^−7 A; in test [2] (no elastase control reaction (so in the source)), 6.86×10^−8 A; in test [2] (setting [5]) it was 1.31×10^−7 A. For the same substance, the peak position in test [1] (setting [4]) amounted to 432 mV; in test [1] (setting [5]) it was 438 mV. The “faradaic current response over time after addition of the enzyme” value in test [3] is reported as “increase in current”.
